Target: the molecule itself
Experiment: dynamic light scattering; Zetasizer Nano S, 6 μM enzyme, 50 mM Hepes pH 7.4, 0.5 M NaCl, 25 °C; also with L-Orn and α-KG at saturating concentrations

B1: R217A variant of human ornithine δ-aminotransferase (enzyme, UniProt P04181 26-439, looked up)
chain: TSVATKKTVQGPPTSDDIFEREYKYGAHNYHPLPVALERGKGIYLWDVEGRKYFDFLSSYSAVNQGHCHPKIVNALKSQVDKLTLTSRAFYNNVLGEYEEYITKLFNYHKVLPMNTGVEAGETACKLARKWGYTVKGIQKYKAKIVFAAGNFWGRTLSAISSSTDPTSYDGFGPFMPGFDIIPYNDLPALEAALQDPNVAAFMVEPIQGEAGVVVPDPGYLMGVRELCTRHQVLFIADEIQTGLARTGRWLAVDYENVRPDIVLLGKALSGGLYPVSAVLCDDDIMLTIKPGEHGSTYGGNPLGCRVAIAALEVLEEENLAENADKLGIILRNELMKLPSDVVTAVRGKGLLNAIVIKETKDWDAWKVCLRLRDNGLLAKPTHGDIIRFAPPLVIKEDELRESIEIINKTILSF
notes: the protein as purified is reconstituted with PLP, so probably the holo-form (PLP on Lys292); A start Met from the NdeI site probably precedes T26; also called R217A mutant; dimeric variant R217A; source: E. coli BL21(DE3)pLysS, purified (DEAE Sepharose, Superdex 200)
stoichiometry N: 2
